T1: IKK2 (HA epitope-tagged, expressed from pHA-IKK2), O14920
T1 chain: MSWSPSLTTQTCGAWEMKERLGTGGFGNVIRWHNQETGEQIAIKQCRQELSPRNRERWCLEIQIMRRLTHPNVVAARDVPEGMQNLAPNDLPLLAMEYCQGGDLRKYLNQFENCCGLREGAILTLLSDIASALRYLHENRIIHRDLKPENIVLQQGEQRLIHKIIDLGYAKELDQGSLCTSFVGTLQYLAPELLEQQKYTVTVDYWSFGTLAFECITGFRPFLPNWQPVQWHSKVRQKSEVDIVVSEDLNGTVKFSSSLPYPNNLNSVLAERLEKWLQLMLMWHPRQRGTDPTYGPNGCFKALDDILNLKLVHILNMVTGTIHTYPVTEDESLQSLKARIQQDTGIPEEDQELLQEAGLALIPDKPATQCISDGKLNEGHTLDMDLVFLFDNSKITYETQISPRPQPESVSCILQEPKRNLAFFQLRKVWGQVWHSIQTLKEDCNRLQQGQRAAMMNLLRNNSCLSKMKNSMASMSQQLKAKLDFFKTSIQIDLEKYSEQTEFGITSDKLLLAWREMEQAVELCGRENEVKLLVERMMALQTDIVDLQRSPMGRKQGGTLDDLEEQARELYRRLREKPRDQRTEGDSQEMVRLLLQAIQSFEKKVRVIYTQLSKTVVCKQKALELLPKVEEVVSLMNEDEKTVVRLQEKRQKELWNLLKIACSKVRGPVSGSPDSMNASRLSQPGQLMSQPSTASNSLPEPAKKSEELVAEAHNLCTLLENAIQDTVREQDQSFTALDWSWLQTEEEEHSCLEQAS

T2: Receptor Interacting Protein RIP (UniProt Q13546 1-671, limits assumed)
T2 sequence (looked up): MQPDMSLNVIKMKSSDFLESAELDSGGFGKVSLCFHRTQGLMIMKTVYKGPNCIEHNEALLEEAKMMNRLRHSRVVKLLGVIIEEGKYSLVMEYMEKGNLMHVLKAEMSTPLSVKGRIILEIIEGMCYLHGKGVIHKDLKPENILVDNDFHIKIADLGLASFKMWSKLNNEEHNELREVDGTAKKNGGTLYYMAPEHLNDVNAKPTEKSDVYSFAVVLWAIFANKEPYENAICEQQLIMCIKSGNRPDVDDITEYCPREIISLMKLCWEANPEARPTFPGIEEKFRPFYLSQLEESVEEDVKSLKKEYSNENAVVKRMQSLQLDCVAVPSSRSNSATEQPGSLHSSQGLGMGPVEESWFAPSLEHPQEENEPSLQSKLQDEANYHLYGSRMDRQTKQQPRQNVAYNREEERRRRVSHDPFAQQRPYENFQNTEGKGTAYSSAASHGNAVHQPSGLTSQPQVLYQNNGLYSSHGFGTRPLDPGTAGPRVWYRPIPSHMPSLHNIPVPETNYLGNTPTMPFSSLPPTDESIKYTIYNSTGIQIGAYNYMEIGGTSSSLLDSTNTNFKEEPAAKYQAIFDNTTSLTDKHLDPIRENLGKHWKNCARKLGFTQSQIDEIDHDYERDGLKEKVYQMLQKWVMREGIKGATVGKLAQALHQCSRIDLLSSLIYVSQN

T3: TNF Receptor Associated Factor 2 TRAF2 (UniProt Q12933 1-501, limits assumed)
T3 sequence (looked up): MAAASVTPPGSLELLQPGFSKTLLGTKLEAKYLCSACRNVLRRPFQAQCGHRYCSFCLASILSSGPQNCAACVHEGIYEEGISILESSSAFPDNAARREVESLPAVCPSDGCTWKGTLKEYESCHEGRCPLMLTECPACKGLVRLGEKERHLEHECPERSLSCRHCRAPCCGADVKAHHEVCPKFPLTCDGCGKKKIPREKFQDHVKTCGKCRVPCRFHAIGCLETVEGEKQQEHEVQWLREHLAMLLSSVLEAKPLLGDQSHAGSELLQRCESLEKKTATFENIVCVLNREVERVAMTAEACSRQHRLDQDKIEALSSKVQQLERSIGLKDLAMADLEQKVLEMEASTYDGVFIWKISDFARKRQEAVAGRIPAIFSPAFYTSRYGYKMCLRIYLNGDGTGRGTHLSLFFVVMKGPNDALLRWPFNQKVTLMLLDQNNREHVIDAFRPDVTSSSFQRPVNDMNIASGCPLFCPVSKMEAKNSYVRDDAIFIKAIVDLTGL


Legend:
[1] = molecular target: T1, IKK2 (HA epitope-tagged, expressed from …)
[2] = molecular target: T4, IKK-γ subunit (endogenous, 293T cells) (human, UniProt Q9Y6K9 1-419); experiment: co-immunoprecipitation with anti-IKK-γ from 293T lysates, immunoblot (FIG. 7C)
T4 construct: also called endogenous IKK-γ
T4 sequence (Q9Y6K9 whole entry): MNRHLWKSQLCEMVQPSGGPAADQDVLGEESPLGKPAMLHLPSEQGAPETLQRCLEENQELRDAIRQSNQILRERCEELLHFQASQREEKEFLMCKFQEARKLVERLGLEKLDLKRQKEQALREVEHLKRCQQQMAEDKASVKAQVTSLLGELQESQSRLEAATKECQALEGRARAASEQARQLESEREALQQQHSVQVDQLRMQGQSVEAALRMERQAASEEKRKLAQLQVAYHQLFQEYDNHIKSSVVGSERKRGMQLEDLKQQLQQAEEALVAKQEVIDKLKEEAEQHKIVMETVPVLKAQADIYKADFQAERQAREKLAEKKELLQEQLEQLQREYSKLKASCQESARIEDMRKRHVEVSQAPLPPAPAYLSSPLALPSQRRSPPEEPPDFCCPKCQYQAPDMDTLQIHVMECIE

[3] = molecular target: T2, Receptor Interacting Protein RIP; experiment: not described (data not shown)
[4] = molecular target: T3, TNF Receptor Associated Factor 2 TRAF2; experiment: not described (data not shown)

Binder | phosphorylation of recombinant IκBα in an in vitro kinase assay of anti-IKK1 immunoprecipitates [1] | binding result [2] | binding result [3] | binding result [4]
IKK1 (FLAG epitope-tagged, expressed from pFLAG-IKK1) (protein) MERPPGLRPGAGGPWEMRERLGTGGFGNVCLYQHRELDLKIAIKSCRLELSTKNRERWCHEIQIMKKLNHANVVKACDVPEELNILIHDVPLLAMEYCSGGDLRKLLNKPENCCGLKESQILSLLSDIGSGIRYLHENKIIHRDLKPENIVLQDVGGKIIHKIIDLGYAKDVDQGSLCTSFVGTLQYLAPELFENKPYTATVDYWSFGTMVFECIAGYRPFLHHLQPFTWHEKIKKKDPKCIFACEEMSGEVRFSSHLPQPNSLCSLVVEPMENWLQLMLNWDPQQRGGPVDLTLKQPRCFVLMDHILNLKIVHILNMTSAKIISFLLPPDESLHSLQSRIERETGINTGSQELLSETGISLDPRKPASQCVLDGVRGCDSYMVYLFDKSKTVYEGPFASRSLSDCVNYIVQDSKIQLPIIQLRKVWAEAVHYVSGLKEDYSRLFQGQRAAMLSLLRYNANLTKMKNTLISASQQLKAKLEFFHKSIQLDLERYSEQMTYGISSEKMLKAWKEMEEKAIHYAEVGVIGYLEDQIMSLHAEIMELQKSPYGRRQGDLMESLEQRAIDLYKQLKHRPSDHSYSDSTEMVKIIVHTVQSQDRVLKELFGHLSKLLGCKQKIIDLLPKVEVALSNIKEADNTVMFMQGKRQKEIWHLLKIACTQSSARSLVGSSLEGAVTPQTSAWLPPTSAEHDHSLSCVVTPQDGETSAQMIEENLNCLGHLSTIIHEANEEQGNSMMNLDWSWLTE | a phosphorylated form of recombinant IκBα was easily detected | – | – | –
Molluscum contagiosum virus (MCV) MC160 protein (other, also called wild type MC160) MAHEPIPFSFLRNLLAELDASEHEVLRFLCRDVAPASKTAEDALRALQRRRLLTLSSMAELLCALRRFDVLKVRFGMTRECAGRLLGHGFLSQYRLQVAAINNMVGSEDLRVMCLCAGKLLPPSCTPRCLVDLVSALEDAGAISPQDVSVLVTLLHAVCRYDLSVALSAVAHGHMTVGVGTPVQDEPMDVLEVDDAEPMEATPACDEIGVVKLAGAASAGAPLADGAFAACTSAGKGEDLATSDLTDSEPEDSVFAVADPVYADVDLSMFVRANATADSSMFVNADAGADSSLVNADAGADSSLVNADAGADSSLVNAVADANSSLMRTTSACTDSEPEDSAGPSCAGMALSMFGRAKSVSSLLLRTKASY | – | no binding | no binding | no binding

Reference: patent US20060251625A1 (published 2006)
